The values that follow come from US20260355338 (published 2026).

This experiment addresses T1, human EpCAM-mFc (human).
T1 chain: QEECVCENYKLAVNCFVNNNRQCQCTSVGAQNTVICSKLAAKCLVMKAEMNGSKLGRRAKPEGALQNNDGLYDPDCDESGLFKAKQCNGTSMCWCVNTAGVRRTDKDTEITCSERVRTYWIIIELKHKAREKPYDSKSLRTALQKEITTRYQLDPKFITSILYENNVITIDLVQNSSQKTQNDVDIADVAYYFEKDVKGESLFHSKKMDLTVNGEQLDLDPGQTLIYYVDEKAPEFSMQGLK
As to the kind of experiment: ELISA. In general terms: ELISA stands for enzyme-linked immunosorbent assay.

Usually Kd stands for the constant that tells how readily two partners part at equilibrium. A higher Kd goes with a looser complex.

Positions count from the first letter of the chain named.

B1: EP101-3014 (1565-Y) (antibody)
chain 1: QVQLVQSGAEVKKPGASVKVSCKASGYTFTNYYIHWVRQAPGQRLEYIGWIYPGNVYIQYNEKFKGRATLTADKSASTAYMELSSLRSEDTAVYYCARDGYWFAYWGQGTLVTVSS
chain 2: QGQSGQGSWCHSATDTILPCSNGGGSSGGAVGLLAPPGGLSGRSDNIGGSDIVLTQTPLSLSVTPGQPASISCRSSRSLLHSDGFTYLYWFLQKPGQSPQLLIYQTSNLASGVPDRFSSSGSGTDFTLKISRVEAEDVGVYYCAQNLELPNTFGQGTKLEIK
The molecule B1 showed a Kd of 389 nM.

B2: EP03-3014 (1361-H) (antibody)
chain 1: B1 chain 1 with Y33H, Y101P
chain 2: B1 chain 2 with S8H, W9Y, A13R, L18T, P19H, S21N, N22A
Take B2: the affinity, expressed as Kd, was 4 nM.

B3: EP104-3014 (1565-Y) (antibody)
chain 1: B1 chain 1
chain 2: QGQSGQGTTRCEHYWFTCPLSPGGGSSGGAVGLLAPPGGLSGRSDNIGGSDIVLTQTPLSLSVTPGQPASISCRSSRSLLHSDGFTYLYWFLQKPGQSPQLLIYQTSNLASGVPDRFSSSGSGTDFTLKISRVEAEDVGVYYCAQNLELPNTFGQGTKLEIK
Molecule B3 yielded a Kd of 126 nM.

B4: EP05-3014 (1565-Y) (antibody)
chain 1: B1 chain 1
chain 2: QGQSGQGWWPPCQGGAWCEQRIGGGSSGGAVGLLAPPGGLSGRSDNIGGSDIVLTQTPLSLSVTPGQPASISCRSSRSLLHSDGFTYLYWFLQKPGQSPQLLIYQTSNLASGVPDRFSSSGSGTDFTLKISRVEAEDVGVYYCAQNLELPNTFGQGTKLEIK
On to B4, for which the Kd is 8.6 nM.

B5: EP107-3-3014 (1361-H) (antibody)
chain 1: B1 chain 1 with Y33H, Y101P
chain 2: QGQSGQGSLPCSYMHPYCFYNSGGGSSGGAVGLLAPPGGLSGRSDNIGGSDIVLTQTPLSLSVTPGQPASISCRSSRSLLHSDGFTYLYWFLQKPGQSPQLLIYQTSNLASGVPDRFSSSGSGTDFTLKISRVEAEDVGVYYCAQNLELPNTFGQGTKLEIK
For the molecule B5, binding was put at a Kd of 44 nM.

B6: EP107-2-3014 (1361-H) (antibody)
chain 1: B1 chain 1 with Y33H, Y101P
chain 2: B5 chain 2 with L9H
The molecule B6 had a Kd of 44 nM.

B7: EP01-3014 (1565-Y) (antibody)
chain 1: B1 chain 1
chain 2: QGQSGQGPLMTCSDYYTCKNNLGGGSSGGAVGLLAPPGGLSGRSDNIGGSDIVLTQTPLSLSVTPGQPASISCRSSRSLLHSDGFTYLYWFLQKPGQSPQLLIYQTSNLASGVPDRFSSSGSGTDFTLKISRVEAEDVGVYYCAQNLELPNTFGQGTKLEIK
B7 showed a Kd of 0.66 nM.

B8: EP105-3014 (1361-H) (antibody)
chain 1: B1 chain 1 with Y33H, Y101P
chain 2: QGQSGQGDCTGYSPSVLPACRVGGGSSGGAVGLLAPPGGLSGRSDNIGGSDIVLTQTPLSLSVTPGQPASISCRSSRSLLHSDGFTYLYWFLQKPGQSPQLLIYQTSNLASGVPDRFSSSGSGTDFTLKISRVEAEDVGVYYCAQNLELPNTFGQGTKLEIK
Consider B8, for which the Kd was determined as 201 nM.

B9: EP03-3014 (1565-Y) (antibody)
chain 1: B1 chain 1
chain 2: B1 chain 2 with S8H, W9Y, A13R, L18T, P19H, S21N, N22A
Consider B9, for which binding was characterised by a dissociation constant (Kd) of 64.4 nM.

B10: EP01-3014 (1361-H) (antibody)
chain 1: B1 chain 1 with Y33H, Y101P
chain 2: B7 chain 2
Turning to B10, binding was put at a Kd of 18.2 nM. Compared with the last molecule, the Kd is about 3.5-fold lower.

B11: EP107-1-3014 (1361-H) (antibody)
chain 1: B1 chain 1 with Y33H, Y101P
chain 2: B5 chain 2 with L9R
The molecule B11 showed a Kd of 31 nM.

B12: EP110-3014 (1361-H) (antibody)
chain 1: B1 chain 1 with Y33H, Y101P
chain 2: QGQSGQGPRPHCAILRQCLAATGGGSSGGAVGLLAPPGGLSGRSDNIGGSDIVLTQTPLSLSVTPGQPASISCRSSRSLLHSDGFTYLYWFLQKPGQSPQLLIYQTSNLASGVPDRFSSSGSGTDFTLKISRVEAEDVGVYYCAQNLELPNTFGQGTKLEIK
As for B12, the Kd is 336 nM.

B13: EP106-3014 (1361-H) (antibody)
chain 1: B1 chain 1 with Y33H, Y101P
chain 2: B8 chain 2 with D8F, T10S, A19S, R21L, V22M
B13 came in with a Kd of 348 nM.

B14: EP103-3014 (1565-Y) (antibody)
chain 1: B1 chain 1
chain 2: QGQSGQGMSCVVDRFDRQCPHLGGGSSGGAVGLLAPPGGLSGRSDNIGGSDIVLTQTPLSLSVTPGQPASISCRSSRSLLHSDGFTYLYWFLQKPGQSPQLLIYQTSNLASGVPDRFSSSGSGTDFTLKISRVEAEDVGVYYCAQNLELPNTFGQGTKLEIK
For B14, binding was put at a Kd of 140 nM.

B15: EP102-3014 (1565-Y) (antibody)
chain 1: B1 chain 1
chain 2: QGQSGQGSPACSDRYYQTCVLNGGGSSGGAVGLLAPPGGLSGRSDNIGGSDIVLTQTPLSLSVTPGQPASISCRSSRSLLHSDGFTYLYWFLQKPGQSPQLLIYQTSNLASGVPDRFSSSGSGTDFTLKISRVEAEDVGVYYCAQNLELPNTFGQGTKLEIK
As to B15, the Kd turned out to be 72.5 nM.

B16: EP11-3014 (1361-H) (antibody)
chain 1: B1 chain 1 with Y33H, Y101P
chain 2: QGQSGQGFICPTLYDRPHCMHTGGGSSGGAVGLLAPPGGLSGRSDNIGGSDIVLTQTPLSLSVTPGQPASISCRSSRSLLHSDGFTYLYWFLQKPGQSPQLLIYQTSNLASGVPDRFSSSGSGTDFTLKISRVEAEDVGVYYCAQNLELPNTFGQGTKLEIK
Molecule B16 yielded a Kd of 30.5 nM.

B17: EP108-3014 (1361-H) (antibody)
chain 1: B1 chain 1 with Y33H, Y101P
chain 2: B5 chain 2 with S8L, L9T, P10R, S12T, Y13I, M14A, F19Y, S22Y
As to B17, the affinity, expressed as Kd, was 58 nM.

B18: EP109-3014 (1361-H) (antibody)
chain 1: B1 chain 1 with Y33H, Y101P
chain 2: QGQSGQGPNTCMSERRICSLTYGGGSSGGAVGLLAPPGGLSGRSDNIGGSDIVLTQTPLSLSVTPGQPASISCRSSRSLLHSDGFTYLYWFLQKPGQSPQLLIYQTSNLASGVPDRFSSSGSGTDFTLKISRVEAEDVGVYYCAQNLELPNTFGQGTKLEIK
Take B18: the Kd is 512 nM.

B19: EP04-3014 (1565-Y) (antibody)
chain 1: B1 chain 1
chain 2: QGQSGQGWCPRLFDRPSMGCPTGGGSSGGAVGLLAPPGGLSGRSDNIGGSDIVLTQTPLSLSVTPGQPASISCRSSRSLLHSDGFTYLYWFLQKPGQSPQLLIYQTSNLASGVPDRFSSSGSGTDFTLKISRVEAEDVGVYYCAQNLELPNTFGQGTKLEIK
B19 showed a dissociation constant (Kd) of 26.9 nM. This Kd is about 19-fold lower than that of the molecule before.

B20: EP02-3014 (1565-Y) (antibody)
chain 1: B1 chain 1
chain 2: B14 chain 2 with M8L, V11T, V12H, D13S, F15Y, R17M, Q18H, L22M
In turn, B20 yielded a Kd of 34.5 nM.

B21: EP02-3014 (1361-H) (antibody)
chain 1: B1 chain 1 with Y33H, Y101P
chain 2: B14 chain 2 with M8L, V11T, V12H, D13S, F15Y, R17M, Q18H, L22M
For B21, the Kd came out at 0.44 nM.

B22: EP05-3014 (1361-H) (antibody)
chain 1: B1 chain 1 with Y33H, Y101P
chain 2: B4 chain 2
For the molecule B22, binding was characterised by a dissociation constant (Kd) of 0.46 nM. This Kd and that of the molecule before are within 1.5-fold of each other.

B23: EP11-3014 (1565-Y) (antibody)
chain 1: B1 chain 1
chain 2: B16 chain 2
B23 yielded a Kd of 38 nM.
